Experimental data reported in patent publication US20260242419A1, “A CYCLIC PEPTIDE FOR TRAPPING INTERLEUKIN-1 BETA” (Merck Sharp & Dohme LLC, priority 2023, published 2026).
Starred links: 1 amine or outer side, 2 acyl side, 3 side chain; linkers in the order of their positions; H or OH if unused. Non-standard residues stand in square brackets, D forms with d. No end group written: not given here. dProc3CH24Pal = (2R,3S)-3-(4-pyridylmethyl)pyrrolidine-2-carboxylic acid, O=C([C@H]1[C@@H](Cc2ccncc2)CCN1[*:1])[*:2]; ThrOBn = (2S,3R)-2-amino-3-benzyloxy-butanoic acid, C[C@@H](OCc1ccccc1)[C@H](N[*:1])C(=O)[*:2]; dPyrimA = (2R)-2-amino-3-pyrimidin-5-yl-propanoic acid, O=C([C@@H](Cc1cncnc1)N[*:1])[*:2]; daMeSMe = (2R)-2-amino-3-methoxy-2-methyl-propanoic acid, COC[C@@](C)(N[*:1])C(=O)[*:2]; ThrOMe = (2S,3R)-2-amino-3-methoxy-butanoic acid, CO[C@H](C)[C@H](N[*:1])C(=O)[*:2]; dPro(4R-(4-pyridylmethyl)) = O=C(O)[C@H]1C[C@@H](Cc2ccncc2)CN1; Trp(βS-Me,4-F) = C[C@@H](c1c[nH]c2cccc(F)c12)[C@H](N)C(=O)O; Bip(4'-COOH) = N[C@@H](Cc1ccc(-c2ccc(C(=O)O)cc2)cc1)C(=O)O; Trp(4-Cl) = N[C@@H](Cc1c[nH]c2cccc(Cl)c12)C(=O)O; Ala(pyrimidin-5-yl) = N[C@@H](Cc1cncnc1)C(=O)O; Phe(4-COOH) = N[C@@H](Cc1ccc(C(=O)O)cc1)C(=O)O; Bip = N[C@@H](Cc1ccc(-c2ccccc2)cc1)C(=O)O; Nva(5,5,5-F3) = N[C@@H](CCC(F)(F)F)C(=O)O; Pro(cis-4-F) = O=C(O)[C@@H]1C[C@H](F)CN1; dPhe(4-F) = N[C@H](Cc1ccc(F)cc1)C(=O)O; Dap(CONH2) = NC(=O)NC[C@H](N)C(=O)O; hTyr = N[C@@H](CCc1ccc(O)cc1)C(=O)O; d(αMeD) = C[C@@](N)(CC(=O)O)C(=O)O; h4Pal = N[C@@H](CCc1ccncc1)C(=O)O; hPhe = N[C@@H](CCc1ccccc1)C(=O)O; 4Pal = N[C@@H](Cc1ccncc1)C(=O)O; d3Pal = N[C@H](Cc1cccnc1)C(=O)O; dCha = N[C@H](CC1CCCCC1)C(=O)O; NMeDab = CN[C@@H](CCN)C(=O)O; dCba = N[C@H](CC1CCC1)C(=O)O; dOrn = NCCC[C@@H](N)C(=O)O; Dab = NCC[C@H](N)C(=O)O; Nva = CCC[C@H](N)C(=O)O; Aib = CC(C)(N)C(=O)O

Biological target: Recombinant human IL-1β (BioLegend 579404) (human, UniProt P01584 117-269)
Assay: cell-based or functional assay

Row | Binder | MRC5 IC50
1 | [Bip(4'-COOH)][4Pal][Phe(4-COOH)]G[Pro(cis-4-F)][Trp(βS-Me,4-F)][Aib]SW[d(αMeD)][Nva(5,5,5-F3)]Q[Dab]G[dProc3CH24Pal] (lactam (positions not given here); also: macrolactam, ring places not given here) [SEQ ID NO: 232] | 0.022 nM
2 | [Bip(4'-COOH)][4Pal][Phe(4-COOH)]G[Pro(cis-4-F)][Trp(βS-Me,4-F)][Aib]SW[d(αMeD)][ThrOBn]Q[Dab]G[dProc3CH24Pal] (lactam (positions not given here); also: macrolactam, ring places not given here) [SEQ ID NO: 229] | 0.023 nM
3 | [Bip(4'-COOH)][4Pal][Phe(4-COOH)]G[Pro(cis-4-F)][Trp(βS-Me,4-F)][Aib]SW[d(αMeD)][hPhe]Q[Dab]G[dProc3CH24Pal] (lactam (positions not given here); also: macrolactam, ring places not given here) [SEQ ID NO: 221] | 0.02 nM
4 | [Bip(4'-COOH)][4Pal][Phe(4-COOH)]G[Pro(cis-4-F)][Trp(βS-Me,4-F)][Aib]SW[d(αMeD)][Ala(pyrimidin-5-yl)]Q[Dap(CONH2)]G[dProc3CH24Pal] (lactam (positions not given here); also: macrolactam, ring places not given here) [SEQ ID NO: 230] | 0.022 nM
5 | [Bip(4'-COOH)][4Pal][Phe(4-COOH)]G[Pro(cis-4-F)][Trp(βS-Me,4-F)][Aib]SW[d(αMeD)][h4Pal]Q[Dab]G[dProc3CH24Pal] (lactam (positions not given here); also: macrolactam, ring places not given here) [SEQ ID NO: 222] | 0.02 nM
6 | [Bip(4'-COOH)][4Pal][Phe(4-COOH)]G[Pro(cis-4-F)][Trp(βS-Me,4-F)][Aib]SW[d(αMeD)][ThrOMe]Q[Dab]G[dProc3CH24Pal] (lactam (positions not given here); also: macrolactam, ring places not given here) [SEQ ID NO: 227] | 0.014 nM
7 | [Bip(4'-COOH)][4Pal][Phe(4-COOH)]G[Pro(cis-4-F)][Trp(βS-Me,4-F)][Aib]SW[d(αMeD)][Nva]Q[Dab]G[dProc3CH24Pal] (lactam (positions not given here); also: macrolactam, ring places not given here) [SEQ ID NO: 231] | 0.027 nM
8 | [Bip(4'-COOH)][4Pal][Phe(4-COOH)]G[Pro(cis-4-F)][Trp(βS-Me,4-F)][Aib]S[Trp(4-Cl)][d(αMeD)][Ala(pyrimidin-5-yl)]Q[Dab]G[dProc3CH24Pal] (lactam (positions not given here); also: macrolactam, ring places not given here) [SEQ ID NO: 225] | 0.019 nM
9 | [Bip(4'-COOH)][4Pal][Phe(4-COOH)]G[Pro(cis-4-F)][Trp(βS-Me,4-F)][Aib]SW[daMeSMe][Ala(pyrimidin-5-yl)]Q[Dab]G[dProc3CH24Pal] (lactam (positions not given here); also: macrolactam, ring places not given here) [SEQ ID NO: 224] | 0.03 nM
10 | [Bip(4'-COOH)][4Pal][Phe(4-COOH)]G[Pro(cis-4-F)][Trp(βS-Me,4-F)][Aib]SW[d(αMeD)][ThrOMe]Q[Dap(CONH2)]G[dProc3CH24Pal] (lactam (positions not given here); also: macrolactam, ring places not given here) [SEQ ID NO: 228] | 0.021 nM
11 | [Bip(4'-COOH)][4Pal][Phe(4-COOH)]G[Pro(cis-4-F)][Trp(βS-Me,4-F)][Aib]SW[Aib][hTyr]Q[Dab]G[dProc3CH24Pal] (lactam (positions not given here); also: macrolactam, ring places not given here) [SEQ ID NO: 220] | 0.039 nM
12 | [Bip(4'-COOH)][4Pal][Phe(4-COOH)]G[Pro(cis-4-F)][Trp(βS-Me,4-F)][Aib]S[Trp(4-Cl)][d(αMeD)][Ala(pyrimidin-5-yl)]Q[Dap(CONH2)]G[dProc3CH24Pal] (lactam (positions not given here); also: macrolactam, ring places not given here) [SEQ ID NO: 226] | 0.022 nM
13 | [Bip(4'-COOH)][4Pal][Phe(4-COOH)]G[Pro(cis-4-F)][Trp(βS-Me,4-F)][Aib]SW[d(αMeD)][h4Pal]Q[Dap(CONH2)]G[dProc3CH24Pal] (lactam (positions not given here); also: macrolactam, ring places not given here) [SEQ ID NO: 223] | 0.027 nM

Next, values leading:

Row | MRC5 IC50 | Binder
14 | 0.018 nM | [Bip(4'-COOH)][4Pal][Phe(4-COOH)]G[Pro(cis-4-F)][Trp(βS-Me,4-F)][Aib]SW[d(αMeD)][Ala(pyrimidin-5-yl)]Q[NMeDab]G[dProc3CH24Pal] (lactam (positions not given here); also: macrolactam, ring places not given here) [SEQ ID NO: 235]
15 | 0.02 nM | [Bip(4'-COOH)][4Pal][Phe(4-COOH)]G[Pro(cis-4-F)][Trp(βS-Me,4-F)][Aib]SW[d(αMeD)][dCba]Q[Dab]G[dProc3CH24Pal] (lactam (positions not given here); also: macrolactam, ring places not given here) [SEQ ID NO: 239]
16 | 0.024 nM | [Bip(4'-COOH)][4Pal][Phe(4-COOH)]G[Pro(cis-4-F)][Trp(βS-Me,4-F)][Aib]SW[Aib][dD]Q[Dab]G[dProc3CH24Pal] (lactam (positions not given here); also: macrolactam, ring places not given here) [SEQ ID NO: 234]
17 | 0.03 nM | [Bip(4'-COOH)][4Pal][Phe(4-COOH)]G[Pro(cis-4-F)][Trp(βS-Me,4-F)][Aib]SW[Aib][dPyrimA]Q[Dab]G[dProc3CH24Pal] (lactam (positions not given here); also: macrolactam, ring places not given here) [SEQ ID NO: 233]
18 | 0.025 nM | [Bip(4'-COOH)][4Pal][Phe(4-COOH)]G[Pro(cis-4-F)][Trp(βS-Me,4-F)][Aib]SW[d(αMeD)][dCha]Q[Dab]G[dProc3CH24Pal] (lactam (positions not given here); also: macrolactam, ring places not given here) [SEQ ID NO: 237]
19 | 0.025 nM | cyclo([Bip(4'-COOH)][4Pal][Phe(4-COOH)]G[Pro(cis-4-F)][Trp(βS-Me,4-F)][Aib]SW[d(αMeD)][d3Pal]Q[Dab]G[dProc3CH24Pal]) (ring closure inferred) [SEQ ID NO: 240]
20 | 0.021 nM | [Bip(4'-COOH)][4Pal][Phe(4-COOH)]G[Pro(cis-4-F)][Trp(βS-Me,4-F)][Aib]SW[d(αMeD)][dPhe(4-F)]Q[Dab]G[dProc3CH24Pal] (lactam (positions not given here); also: macrolactam, ring places not given here) [SEQ ID NO: 236]
21 | 0.024 nM | [Bip(4'-COOH)][4Pal][Phe(4-COOH)]G[Pro(cis-4-F)][Trp(βS-Me,4-F)][Aib]SW[d(αMeD)][dL]Q[Dab]G[dProc3CH24Pal] (lactam (positions not given here); also: macrolactam, ring places not given here) [SEQ ID NO: 238]
22 | 0.018 nM | cyclo([Bip(4'-COOH)][4Pal][Phe(4-COOH)]G[Pro(cis-4-F)][Trp(βS-Me,4-F)][Aib]SW[Aib][Ala(pyrimidin-5-yl)]Q[NMeDab]G[dProc3CH24Pal]) (ring closure inferred) [SEQ ID NO: 241]

Biological target: Recombinant human IL-1β (BioLegend 579404) (human, UniProt P01584 117-269)
Assay: cell-based or functional assay
Remark: another data set of the same source

Row | MRC5 IC50 | Binder
23 | 0.019 nM | cyclo([Bip(4'-COOH)][4Pal][Phe(4-COOH)]G[Pro(cis-4-F)][Trp(βS-Me,4-F)][Aib]SW[d(αMeD)][dS]Q[Dab]G[dPro(4R-(4-pyridylmethyl))]) (ring closure inferred) [SEQ ID NO 242]
24 | 0.022 nM | cyclo([Bip(4'-COOH)][4Pal][Phe(4-COOH)]G[Pro(cis-4-F)][Trp(βS-Me,4-F)][Aib]SW[d(αMeD)][dF]Q[Dab]G[dPro(4R-(4-pyridylmethyl))]) (ring closure inferred) [SEQ ID NO 243]
25 | 0.03 nM | cyclo([Bip][4Pal][Phe(4-COOH)]G[Pro(cis-4-F)][Trp(βS-Me,4-F)][Aib]SW[d(αMeD)][dK]Q[Dap(CONH2)]G[dPro(4R-(4-pyridylmethyl))]) (ring closure inferred) [SEQ ID NO 244]
26 | 0.027 nM | cyclo([Bip][4Pal][Phe(4-COOH)]G[Pro(cis-4-F)][Trp(βS-Me,4-F)][Aib]SW[d(αMeD)][dOrn]Q[Dap(CONH2)]G[dPro(4R-(4-pyridylmethyl))]) (ring closure inferred) [SEQ ID NO 245]
